The numbers were not newly measured in publication PMC11678748, which cites them from elsewhere.

This series deals with KCCYSL peptide (synthetic construct).

On to HER2 (from UniProt P04626), for which the Kd is 295 nM.
